Source: article PMC9477392 (2022)

Target: T1, Atox1 (Homo sapiens, UniProt O00244)
T1 chain: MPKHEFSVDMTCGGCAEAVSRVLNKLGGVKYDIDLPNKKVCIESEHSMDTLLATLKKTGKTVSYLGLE
Test: SPR

B1: Memo1 (protein)
chain: MSNRVVCREASHAGSWYTASGPQLNAQLEGWLSQVQSTKRPARAIIAPHAGYTYCGSCAAHAYKQVDPSITRRIFILGPSHHVPLSRCALSSVDIYRTPLYDLRIDQKIYGELWKTGMFERMSLQTDEDEHSIEMHLPYTAKAMESHKDEFTIIPVLVGALSESKEQEFGKLFSKYLADPSNLFVVSSDFCHWGQRFRYSYYDESQGEIYRSIEHLDKMGMSIIEQLDPVSFSNYLKKYHNTICGRHPIGVLLNAITELQKNGMNMSFSFLNYAQSSQCRNWQDSSVSYAAGALTVH
modifications: Cu(I)-loaded Atox1
With B1 the Kd was 210 nM.
